# Test results taken from the supplement of paper PMC10065799, “High-throughput profiling of sequence recognition by tyrosine kinases and SH2 domains using bacterial peptide display” (eLife, 2023).
# Legend:
# Grb2 SH2 = Grb2 SH2 (UniProt P62993); assay: SH2 binding enrichment of the phosphorylated peptide, bacterial display (enrichment ratio); higher = better substrate or ligand; peptides without Tyr show the background
# SHP2-C SH2 = assay: as above
# c-Src SH2 = assay: as above
# Fer (mouse) = assay: phosphorylation enrichment, bacterial display (enrichment ratio); higher = better substrate or ligand; peptides without Tyr show the background
# EPHB1 = EPHB1 (UniProt P54762); assay: as above
# FGFR3 = FGFR3 (UniProt P22607); assay: as above
# Jak2 = Jak2 (UniProt O60674); assay: as above
# Fes = Fes (UniProt P07332); assay: as above
# Sequence of Fes (P07332 whole entry, looked up): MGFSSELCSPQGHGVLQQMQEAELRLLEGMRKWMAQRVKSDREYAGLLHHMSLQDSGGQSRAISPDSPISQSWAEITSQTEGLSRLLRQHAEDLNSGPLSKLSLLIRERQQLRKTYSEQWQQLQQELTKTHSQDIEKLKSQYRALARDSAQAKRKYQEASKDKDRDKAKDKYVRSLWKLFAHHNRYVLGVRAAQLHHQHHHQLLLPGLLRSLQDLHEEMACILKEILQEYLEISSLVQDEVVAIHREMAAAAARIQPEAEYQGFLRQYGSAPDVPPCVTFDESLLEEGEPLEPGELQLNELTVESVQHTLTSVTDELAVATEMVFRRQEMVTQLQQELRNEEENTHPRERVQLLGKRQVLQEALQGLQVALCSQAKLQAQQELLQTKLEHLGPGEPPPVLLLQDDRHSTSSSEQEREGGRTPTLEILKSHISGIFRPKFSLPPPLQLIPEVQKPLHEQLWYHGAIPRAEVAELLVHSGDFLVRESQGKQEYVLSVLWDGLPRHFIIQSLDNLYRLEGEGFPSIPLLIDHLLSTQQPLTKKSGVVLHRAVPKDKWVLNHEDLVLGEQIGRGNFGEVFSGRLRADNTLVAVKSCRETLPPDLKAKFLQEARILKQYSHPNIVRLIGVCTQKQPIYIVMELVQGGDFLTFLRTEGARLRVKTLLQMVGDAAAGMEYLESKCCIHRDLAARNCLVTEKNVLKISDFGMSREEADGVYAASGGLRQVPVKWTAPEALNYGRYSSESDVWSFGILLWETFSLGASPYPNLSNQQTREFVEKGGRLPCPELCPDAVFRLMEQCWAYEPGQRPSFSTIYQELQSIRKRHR
# c-Src = assay: as above
# c-Abl (mouse) = assay: as above
# Fyn = Fyn (UniProt P06241); assay: as above
# Sequence of Fyn (P06241 whole entry, looked up): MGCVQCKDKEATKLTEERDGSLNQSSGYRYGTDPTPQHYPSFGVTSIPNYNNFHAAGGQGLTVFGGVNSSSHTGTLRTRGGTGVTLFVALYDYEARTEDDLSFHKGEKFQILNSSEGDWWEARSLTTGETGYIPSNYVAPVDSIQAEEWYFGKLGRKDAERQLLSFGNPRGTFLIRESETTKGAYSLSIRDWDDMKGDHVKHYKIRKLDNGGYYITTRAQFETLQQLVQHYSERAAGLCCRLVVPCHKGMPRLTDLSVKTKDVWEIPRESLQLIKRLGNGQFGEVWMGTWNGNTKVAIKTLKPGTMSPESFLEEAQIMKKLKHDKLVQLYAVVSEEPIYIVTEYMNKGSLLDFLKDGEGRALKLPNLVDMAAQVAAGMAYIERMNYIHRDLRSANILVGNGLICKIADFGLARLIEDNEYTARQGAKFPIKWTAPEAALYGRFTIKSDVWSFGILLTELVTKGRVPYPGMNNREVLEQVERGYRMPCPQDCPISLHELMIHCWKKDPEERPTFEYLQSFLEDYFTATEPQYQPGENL
# FGFR1 = FGFR1 (UniProt P11362); assay: as above
# Sequence of FGFR1 (P11362 whole entry, looked up): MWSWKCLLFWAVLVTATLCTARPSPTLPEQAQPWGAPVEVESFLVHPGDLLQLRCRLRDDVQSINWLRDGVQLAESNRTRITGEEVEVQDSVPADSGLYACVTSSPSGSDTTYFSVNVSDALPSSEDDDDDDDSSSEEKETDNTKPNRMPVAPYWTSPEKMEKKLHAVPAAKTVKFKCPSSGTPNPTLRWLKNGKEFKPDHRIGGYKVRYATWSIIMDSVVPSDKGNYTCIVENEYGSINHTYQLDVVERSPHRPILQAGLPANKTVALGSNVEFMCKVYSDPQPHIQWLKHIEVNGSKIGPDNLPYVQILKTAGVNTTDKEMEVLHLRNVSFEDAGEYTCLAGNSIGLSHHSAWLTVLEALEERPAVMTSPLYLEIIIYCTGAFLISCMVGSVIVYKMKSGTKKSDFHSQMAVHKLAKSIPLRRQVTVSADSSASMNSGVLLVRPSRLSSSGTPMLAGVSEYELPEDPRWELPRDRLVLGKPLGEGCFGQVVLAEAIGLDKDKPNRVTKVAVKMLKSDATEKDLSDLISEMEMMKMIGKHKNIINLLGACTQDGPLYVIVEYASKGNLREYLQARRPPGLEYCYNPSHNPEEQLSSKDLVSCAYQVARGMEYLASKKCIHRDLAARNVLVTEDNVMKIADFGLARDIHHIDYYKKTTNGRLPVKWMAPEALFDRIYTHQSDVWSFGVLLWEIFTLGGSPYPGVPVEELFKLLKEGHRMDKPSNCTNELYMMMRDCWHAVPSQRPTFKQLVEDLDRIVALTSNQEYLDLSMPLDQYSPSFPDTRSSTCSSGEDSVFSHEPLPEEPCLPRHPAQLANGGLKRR
# EPHB2 = EPHB2 (UniProt P29323); assay: as above
# Sequence of EPHB2 (P29323 whole entry, looked up): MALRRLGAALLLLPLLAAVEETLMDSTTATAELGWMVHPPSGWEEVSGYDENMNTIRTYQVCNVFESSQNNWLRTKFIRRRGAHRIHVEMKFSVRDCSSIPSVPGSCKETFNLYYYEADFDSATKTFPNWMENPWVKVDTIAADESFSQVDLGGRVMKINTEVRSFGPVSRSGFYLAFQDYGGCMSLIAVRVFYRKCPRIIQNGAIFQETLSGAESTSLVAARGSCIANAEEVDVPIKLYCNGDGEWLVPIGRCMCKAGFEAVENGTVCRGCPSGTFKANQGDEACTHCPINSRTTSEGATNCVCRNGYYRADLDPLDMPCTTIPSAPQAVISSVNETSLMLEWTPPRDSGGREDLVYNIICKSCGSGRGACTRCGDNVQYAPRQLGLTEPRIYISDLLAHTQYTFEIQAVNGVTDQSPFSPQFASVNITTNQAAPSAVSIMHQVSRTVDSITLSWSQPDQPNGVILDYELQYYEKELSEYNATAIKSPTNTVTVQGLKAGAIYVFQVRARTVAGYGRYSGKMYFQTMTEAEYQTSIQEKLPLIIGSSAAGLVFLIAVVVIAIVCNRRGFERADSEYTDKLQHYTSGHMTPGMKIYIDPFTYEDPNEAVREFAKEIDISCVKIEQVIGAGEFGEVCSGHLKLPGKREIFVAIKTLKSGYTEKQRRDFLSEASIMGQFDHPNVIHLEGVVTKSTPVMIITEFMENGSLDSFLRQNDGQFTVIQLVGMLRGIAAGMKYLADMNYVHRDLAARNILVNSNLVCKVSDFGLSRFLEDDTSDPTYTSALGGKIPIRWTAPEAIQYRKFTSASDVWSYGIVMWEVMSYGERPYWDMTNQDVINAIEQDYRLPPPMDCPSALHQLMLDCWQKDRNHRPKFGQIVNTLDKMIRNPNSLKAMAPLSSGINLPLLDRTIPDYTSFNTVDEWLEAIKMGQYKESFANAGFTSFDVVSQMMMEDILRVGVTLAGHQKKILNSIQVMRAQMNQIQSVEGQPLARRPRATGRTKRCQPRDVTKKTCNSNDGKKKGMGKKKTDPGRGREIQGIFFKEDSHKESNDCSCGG
# AncSZ = assay: as above
# MERTK = MERTK (UniProt Q12866); assay: as above
# Sequence of MERTK (Q12866 whole entry, looked up): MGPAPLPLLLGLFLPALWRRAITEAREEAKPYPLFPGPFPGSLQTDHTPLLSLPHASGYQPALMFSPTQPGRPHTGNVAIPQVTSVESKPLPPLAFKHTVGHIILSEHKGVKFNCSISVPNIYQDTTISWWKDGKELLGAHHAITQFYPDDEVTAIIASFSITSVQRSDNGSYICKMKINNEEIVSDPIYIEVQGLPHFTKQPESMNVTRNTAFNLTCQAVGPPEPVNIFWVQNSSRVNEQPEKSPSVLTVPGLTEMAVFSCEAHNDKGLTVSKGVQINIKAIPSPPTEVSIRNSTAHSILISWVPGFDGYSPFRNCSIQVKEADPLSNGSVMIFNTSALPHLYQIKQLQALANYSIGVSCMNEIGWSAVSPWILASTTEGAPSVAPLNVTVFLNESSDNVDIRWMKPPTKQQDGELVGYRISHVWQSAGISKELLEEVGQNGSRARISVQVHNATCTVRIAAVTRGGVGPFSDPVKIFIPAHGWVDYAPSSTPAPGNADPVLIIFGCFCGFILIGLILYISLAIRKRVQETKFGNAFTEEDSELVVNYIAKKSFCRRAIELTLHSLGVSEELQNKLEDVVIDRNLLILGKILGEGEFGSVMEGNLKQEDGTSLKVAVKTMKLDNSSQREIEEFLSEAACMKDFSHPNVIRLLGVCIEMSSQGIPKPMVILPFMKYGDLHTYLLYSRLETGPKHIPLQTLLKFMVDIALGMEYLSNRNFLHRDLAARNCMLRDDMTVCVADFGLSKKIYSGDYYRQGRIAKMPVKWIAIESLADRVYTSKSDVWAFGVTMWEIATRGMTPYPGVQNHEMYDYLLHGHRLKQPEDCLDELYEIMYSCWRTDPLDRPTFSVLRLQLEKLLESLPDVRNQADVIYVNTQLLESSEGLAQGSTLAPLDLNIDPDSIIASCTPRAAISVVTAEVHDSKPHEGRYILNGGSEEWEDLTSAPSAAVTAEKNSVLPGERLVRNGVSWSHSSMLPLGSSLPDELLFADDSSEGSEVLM
# Hck = Hck (UniProt P08631); assay: as above
# Sequence of Hck (P08631 whole entry, looked up, the tested form may be a part): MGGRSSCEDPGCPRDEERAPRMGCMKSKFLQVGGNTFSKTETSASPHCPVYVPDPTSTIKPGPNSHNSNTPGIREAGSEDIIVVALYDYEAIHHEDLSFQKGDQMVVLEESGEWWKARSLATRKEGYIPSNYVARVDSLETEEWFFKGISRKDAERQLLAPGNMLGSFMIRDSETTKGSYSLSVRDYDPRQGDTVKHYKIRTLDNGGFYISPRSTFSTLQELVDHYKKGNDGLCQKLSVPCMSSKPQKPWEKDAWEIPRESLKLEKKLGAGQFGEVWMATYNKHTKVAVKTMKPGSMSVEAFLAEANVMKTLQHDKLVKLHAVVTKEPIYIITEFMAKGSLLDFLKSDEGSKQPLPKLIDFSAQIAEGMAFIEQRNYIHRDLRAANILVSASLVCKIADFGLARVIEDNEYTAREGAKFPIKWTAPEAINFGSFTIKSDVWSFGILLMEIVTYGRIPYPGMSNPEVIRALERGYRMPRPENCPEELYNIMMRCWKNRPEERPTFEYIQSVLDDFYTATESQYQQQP
# 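Wherever SH2 binding enrichment of the phosphorylated peptide, bacterial display is given: peptide library displayed on the E. coli surface as eCPX fusions, selected cells deep-sequenced, score is each peptide's frequency after selection divided by its frequency in the input.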
# 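Wherever phosphorylation enrichment, bacterial display is given: 11-residue human phosphosite peptides and single-mutation variants displayed on the E. coli surface, counted by deep sequencing, each peptide's frequency after selection divided by its frequency in the unselected input library; frequency after pTyr selection over input frequency; kinase dosed for 20-30% of maximal phosphorylation in three min.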
# Sequence of Grb2 SH2 (P62993 whole entry, looked up): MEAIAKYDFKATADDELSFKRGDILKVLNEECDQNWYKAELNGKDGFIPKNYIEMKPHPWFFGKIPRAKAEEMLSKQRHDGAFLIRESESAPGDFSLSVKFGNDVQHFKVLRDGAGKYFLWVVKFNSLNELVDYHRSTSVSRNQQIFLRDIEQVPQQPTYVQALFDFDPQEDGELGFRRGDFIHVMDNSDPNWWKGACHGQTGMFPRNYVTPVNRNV
Sequence,SH2 binding enrichment (Grb2 SH2),SH2 binding enrichment (SHP2-C SH2),SH2 binding enrichment (c-Src SH2),phosphorylation enrichment (Fer (mouse)),phosphorylation enrichment (EPHB1),phosphorylation enrichment (FGFR3),phosphorylation enrichment (Jak2),phosphorylation enrichment (Fes),phosphorylation enrichment (c-Src),phosphorylation enrichment (c-Abl (mouse)),phosphorylation enrichment (Fyn),phosphorylation enrichment (FGFR1),phosphorylation enrichment (EPHB2),phosphorylation enrichment (AncSZ),phosphorylation enrichment (MERTK),phosphorylation enrichment (Hck)
MPIPMYDGSQA [CARMIL1_Y637_A639G],0.746,0.53,0.452,0.402,1.1,0.532,0.963,0.777,0.44,0.639,0.52,0.434,0.634,0.623,0.447,0.53
FKTPTYPFLLP [PLD2_Y578_YF],0.971,0.745,0.657,0.362,0.74,0.704,0.815,0.693,0.552,0.833,0.413,0.652,0.422,0.641,0.588,0.43
NTPNAYLRVNV [ADD2_Y440_T439A],0.856,1.12,0.499,0.405,0.463,0.667,0.806,0.934,0.391,0.706,0.437,0.437,0.465,0.868,0.404,0.469
RAILLYEFVGK [NATD1_Y45_V42I_YF],1.58,1.7,1.31,32.5,49.4,5.57,3.76,7.5,12.3,2.52,12.1,4.88,65.8,4.95,24.9,19.9
FSKQIYKGMVA [PCDH15_Y931_R929Q],0.879,0.654,0.471,0.331,0.351,0.432,0.472,0.479,0.365,0.42,0.502,0.337,0.342,0.441,0.346,0.384
QKKPCYEIRWK [PDGFRB_Y562_R561C],1.55,2.56,1.73,1.02,0.958,2.08,0.653,1.03,0.361,0.652,0.983,0.914,1.48,1.43,0.67,1.02
DDLEVYLKHLL [SACS_Y3477],0.752,0.605,0.544,0.653,0.505,0.697,0.822,0.97,0.558,0.61,0.482,0.479,0.503,1.03,0.409,0.58
LHVGFYESDVM [A2M_Y708_R704H],0.95,0.721,4.23,1.9,1.41,1.21,1.34,1.58,0.676,0.761,0.691,0.889,1.14,1.18,1.15,0.743
